The nature of this data set: Stability of PAF-AH in serum (storage temperatures, freeze-thaw cycles). The data set is classed as physicochemical, human. How it is done:
Sera may have been stored under differing conditions, subjecting PAF-AH to thermal stresses. In order to evaluate the effect of handling and storage conditions on PAF-AH activity, serum samples were subjected to a range of temperatures and freeze-thaw cycles and assayed for residual PAF-AH activity as detailed below.
The final concentration of the substrate was 160 μM. […] The reaction was stopped in an ice bath.
Serum samples from individuals with fatal peanut anaphylaxis and from various control groups may have been stored under differing conditions, subjecting PAF-AH to thermal stresses. In order to evaluate the effect of handling and storage conditions on PAF-AH activity, sera were stored at different temperatures. The stability of PAF-AH stored at 4° C. and 23° C. and subjected to repeated cycles of freeze-thawing was assessed. PAF-AH levels were measured at specified times following storage at 23° C. (2, 4, 8, 24 and 48 hours) and at 4° C. (5 and 10 days) and following 5 sequential cycles of freezing and thawing. To assess the stability of PAF-AH to long term storage, serum samples stored at −70° C. since 1998 were re-assayed for PAF-AH and compared to results of assay results prior to storage.

These results are taken from patent publication US8562982B2, “Use of platelet activating factor acetylhydrolase as a biomarker for anaphylaxis” (Allertech Laboratory Inc., priority 2007, dated 2013).

B1: PAF-AH: the enzyme that degrades PAF; endogenous serum enzyme measured as biomarker (protein, UniProt Q13093 22-441, looked up)
Platelet-activating factor …: FDWQYINPVAHMKSSAWVNKIQVLMAAASFGQTKIPRGNGPYSVGCTDLMFDHTNKGTFLRLYYPSQDNDRLDTLWIPNKEYFWGLSKFLGTHWLMGNILRLLFGSMTTPANWNSPLRPGEKYPLVVFSHGLGAFRTLYSAIGIDLASHGFIVAAVEHRDRSASATYYFKDQSAAEIGDKSWLYLRTLKQEEETHIRNEQVRQRAKECSQALSLILDIDHGKPVKNALDLKFDMEQLKDSIDREKIAVIGHSFGGATVIQTLSEDQRFRCGIALDAWMFPLGDEVYSRIPQPLFFINSEYFQYPANIIKMKKCYSPDKERKMITIRGSVHQNFADFTFATGKIIGHMLKLKGDIDSNVAIDLSNKASLAFLQKHLGLHKDFDQWDCLIEGDDENLIPGTNINTTNQHIMLQNSSGIEKYN
Regarding B1, for the setting “6 fresh sera, 5 freeze-thaw cycles, relative to fresh sera”, the “residual PAF-AH activity” value is 90-105%. The “mean PAF-AH activity” value is, setting by setting: (fresh sera in 1998 (n=25), before storage) 27.04 ± 9.92 nmol/mL/min; (same sera after eight years at −70° C. (p=0.1047)) 22.98 ± 7.23 nmol/mL/min. Besides, the “retained initial PAF-AH activity” value (sera stored at 4° C. for 10 days) is 96-102%. Further, for the setting “sera stored at 23° C. for up to 48 hours”, the “retained PAF-AH activity of fresh sera” value is on record as 84-92%.
